Experimental data from patent US20240398973A1, “ENGINEERED ANTIBODY COMPOUNDS AND CONJUGATES THEREOF” (Eli Lilly and Company, priority 2017, published 2024).
Where two headings read alike, the source gives them in different places.

Legend:
[1] = target: formyl peptide receptor 1 (FPR1) on primary human polymorphonuclear neutrophils (human) (UniProt P21462); assay: cell-based or functional assay
[2] = target: formyl peptide receptor 1 (FPR1) on primary human polymorphonuclear neutrophils (human) (UniProt P21462); assay: cell-based or functional assay; remark: listed apart in the source
[3] = test system: primary human polymorphonuclear neutrophil (PMN); assay: PMN chemotaxis (transwell, modified Boyden chamber); assay type: cell-based
Procedure: Chemotaxis is measured by observing primary human polymorphonuclear neutrophil (PMN) migration across transwell membranes (Corning #3415) towards antibody conjugates in a modified Boyden chamber assay. Approximately 2-4×10^5 cells from neutrophil-enriched preparations are seeded in upper transwell chambers on membranes with 3.0 um pores. The lower transwell chambers contain solutions of buffer alone and fMLF (N-formyl-Met-Leu-Phe peptide as positive control) and experimental antibody bioconjugates. […] Cell numbers are determined using standard curves. All data are transformed to percent relative to the maximal fMLF response for each individual experiment.

[4] = test system: human primary PMNs; assay: PMN reactive oxygen species (ROS) production, luminol-amplified chemiluminescence; assay type: cell-based; settings: relative to 1000 nM fMLF
Procedure: Production of ROS by human primary PMNs is measured using luminol-amplified chemiluminescence. Following isolation, PMNs are suspended at 1×10^6 cells/ml in HBSS containing calcium and magnesium (Gibco #14025-092) supplemented with 0.25% human serum albumin (Gemini Bio producst #800-124) and 50 uM Luminol (SigmaAldrich #123072-2.5G). 100 μl of cell suspension (1×10^5 total cells) is then distributed into each well of a 96-well plate suitable for fluorescence measurement (Greiner #655098) and temperature equilibrated to 37° C. for 5 minutes. Following equilibration, 10× solution of antibody conjugate is applied to the wells, achieving a 1× final concentration.
Immediately after the addition of antibody conjugate, chemiluminescence signal is recorded in a luminometer maintained at 37° C. with 0.01 seconds dwell time per well, 20 seconds total time between sequential plate readings and 45 minutes total run time (PerkinElmer EnVision Multilabel Plate Reader).

Emibetuzumab-G4(PAA)-fMLFK-HC-124C-378C (antibody)
PMN ROS production at 1 nM (percent relative to 1000 nM fMLF) [1]: 27.4%
PMN ROS production at 2 nM (percent relative to 1000 nM fMLF) [1]: 27.4%
PMN ROS production at 3.9 nM (percent relative to 1000 nM fMLF) [1]: 26.5%
PMN ROS production at 7.8 nM (percent relative to 1000 nM fMLF) [1]: 27.6%
PMN ROS production at 15.6 nM (percent relative to 1000 nM fMLF) [1]: 28.3%
PMN ROS production at 31.3 nM (percent relative to 1000 nM fMLF) [1]: 27.9%
PMN ROS production at 62.5 nM (percent relative to 1000 nM fMLF) [1]: 27.7%
PMN ROS production at 125 nM (percent relative to 1000 nM fMLF) [1]: 24.7%
PMN ROS production at 250 nM (percent relative to 1000 nM fMLF) [1]: 29%
PMN ROS production at 500 nM (percent relative to 1000 nM fMLF) [1]: 53.6%
PMN ROS production at 1000 nM (percent relative to 1000 nM fMLF) [1]: 62.2%
PMN ROS production at 1 nM (percent relative to 1000 nM fMLF) [2]: 0.6%
PMN ROS production at 3 nM (percent relative to 1000 nM fMLF) [2]: 0.8%
PMN ROS production at 12 nM (percent relative to 1000 nM fMLF) [2]: 0.9%
PMN ROS production at 30 nM (percent relative to 1000 nM fMLF) [2]: 1.8%
PMN ROS production at 100 nM (percent relative to 1000 nM fMLF) [2]: 3.4%
PMN ROS production at 300 nM (percent relative to 1000 nM fMLF) [2]: 9.1%
PMN ROS production at 1000 nM (percent relative to 1000 nM fMLF) [2]: 25.3%

Emibetuzumab-G4-fMLFK-HC-124C-157C-378C (antibody)
PMN ROS production at 1 nM (percent relative to 1000 nM fMLF) [2]: 1.7%
PMN ROS production at 3 nM (percent relative to 1000 nM fMLF) [2]: 11.9%
PMN ROS production at 12 nM (percent relative to 1000 nM fMLF) [2]: 26.9%
PMN ROS production at 30 nM (percent relative to 1000 nM fMLF) [2]: 50%
PMN ROS production at 100 nM (percent relative to 1000 nM fMLF) [2]: 63.6%
PMN ROS production at 300 nM (percent relative to 1000 nM fMLF) [2]: 58.7%
PMN ROS production at 1000 nM (percent relative to 1000 nM fMLF) [2]: 51.8%

Tmab-G1-fMIFL-HC124C-378C-(PEG12) (antibody)
EC50 of PMN ROS production [1]: 36.4 nM

Peptide-'183, formyl-Met-Leu-Phe-Lys(Mal-PEG12)-OH with hydrolyzed maleimido group (unconjugated peptide)
EC50 of PMN ROS production [1]: 103 nM
PMN ROS production at 1 pM (percent relative to 10 uM fMLF) [1]: 6.9%
PMN ROS production at 10 pM (percent relative to 10 uM fMLF) [1]: 7.4%
PMN ROS production at 100 pM (percent relative to 10 uM fMLF) [1]: 7.5%
PMN ROS production at 1 nM (percent relative to 10 uM fMLF) [1]: 8.8%
PMN ROS production at 10 nM (percent relative to 3000 nM fMLF) [1]: 3.6%
PMN ROS production at 10 nM (percent relative to 10 uM fMLF) [1]: 31.3%
PMN ROS production at 30 nM (percent relative to 3000 nM fMLF) [1]: 12.2%
PMN ROS production at 100 nM (percent relative to 3000 nM fMLF) [1]: 49.9%
PMN ROS production at 100 nM (percent relative to 10 uM fMLF) [1]: 76.6%
PMN ROS production at 300 nM (percent relative to 3000 nM fMLF) [1]: 76.2%
PMN ROS production at 1 µM (percent relative to 10 uM fMLF) [1]: 94%
PMN ROS production at 1000 nM (percent relative to 3000 nM fMLF) [1]: 94.3%
PMN ROS production at 3000 nM (percent relative to 3000 nM fMLF) [1]: 99.5%
PMN ROS production at 10 µM (percent relative to 10 uM fMLF) [1]: 107%
PMN ROS production at 10000 nM (percent relative to 3000 nM fMLF) [1]: 89.1%
PMN migration at 1 nM (percent relative to 100 nM fMLF) [1]: 150%
PMN migration at 3 nM (percent relative to 100 nM fMLF) [1]: 167%
PMN migration at 10 nM (percent relative to 100 nM fMLF) [1]: 145%
PMN migration at 30 nM (percent relative to 100 nM fMLF) [1]: 118%
PMN migration at 100 nM (percent relative to 100 nM fMLF) [1]: 84.2%
PMN migration at 300 nM (percent relative to 100 nM fMLF) [1]: 50.4%
PMN migration at 1000 nM (percent relative to 100 nM fMLF) [1]: 33.6%

Emibetuzumab-G4(PAA)-UC-HC-124C-378C: unconjugated emibetuzumab IgG4(PAA) with HC 124C and 378C; HC SEQ ID NO:3, LC SEQ ID NO:5
Relative Migration (PMN migration towards antibody conjugates) ([3]; 0.78 nM, relative to 3.12 nM fMLF (Table 6)): 5.48%
Relative Migration (PMN migration towards antibody conjugates) ([3]; 1 nM, relative to 30 nM fMLF (Table 7)): 11.30%
Relative Migration (PMN migration towards antibody conjugates) ([3]; 1.56 nM, relative to 3.12 nM fMLF (Table 6)): 8.05%
Relative Migration (PMN migration towards antibody conjugates) ([3]; 3 nM, relative to 30 nM fMLF (Table 7)): 12.40%
Relative Migration (PMN migration towards antibody conjugates) ([3]; 3.12 nM, relative to 3.12 nM fMLF (Table 6)): 7.24%
Relative Migration (PMN migration towards antibody conjugates) ([3]; 6.25 nM, relative to 3.12 nM fMLF (Table 6)): 6.36%
Relative Migration (PMN migration towards antibody conjugates) ([3]; 10 nM, relative to 30 nM fMLF (Table 7)): 12.27%
Relative Migration (PMN migration towards antibody conjugates) ([3]; 12.5 nM, relative to 3.12 nM fMLF (Table 6)): 4.11%
Relative Migration (PMN migration towards antibody conjugates) ([3]; 25 nM, relative to 3.12 nM fMLF (Table 6)): 5.70%
Relative Migration (PMN migration towards antibody conjugates) ([3]; 30 nM, relative to 30 nM fMLF (Table 7)): 14.66%
Relative Migration (PMN migration towards antibody conjugates) ([3]; 50 nM, relative to 3.12 nM fMLF (Table 6)): 12.02%
Relative Migration (PMN migration towards antibody conjugates) ([3]; 100 nM, relative to 3.12 nM fMLF (Table 6)): 6.67%
Relative Migration (PMN migration towards antibody conjugates) ([3]; 100 nM, relative to 30 nM fMLF (Table 7)): 14.89%
Relative Migration (PMN migration towards antibody conjugates) ([3]; 300 nM, relative to 30 nM fMLF (Table 7)): 17.95%
PMN migration (in words) ([3]; relative to conjugated antibodies): did not induce PMN migration
PMN ROS production ([4]; 1 nM, AUC 5 minutes (Table 10)): 25.1 percentage
PMN ROS production ([4]; 1 nM, AUC 5 minutes (Table 17)): 0.5 percentage
PMN ROS production ([4]; 2 nM, AUC 5 minutes (Table 10)): 25.5 percentage
PMN ROS production ([4]; 3 nM, AUC 5 minutes (Table 17)): 0.6 percentage
PMN ROS production ([4]; 3.9 nM, AUC 5 minutes (Table 10)): 25 percentage
PMN ROS production ([4]; 7.8 nM, AUC 5 minutes (Table 10)): 25.6 percentage
PMN ROS production ([4]; 12 nM, AUC 5 minutes (Table 17)): 0.5 percentage
PMN ROS production ([4]; 15.6 nM, AUC 5 minutes (Table 10)): 24.9 percentage
PMN ROS production ([4]; 30 nM, AUC 5 minutes (Table 17)): 0.6 percentage
PMN ROS production ([4]; 31.3 nM, AUC 5 minutes (Table 10)): 25.3 percentage
PMN ROS production ([4]; 62.5 nM, AUC 5 minutes (Table 10)): 24.5 percentage
PMN ROS production ([4]; 100 nM, AUC 5 minutes (Table 17)): 0.5 percentage
PMN ROS production ([4]; 125 nM, AUC 5 minutes (Table 10)): 24.6 percentage
PMN ROS production ([4]; 250 nM, AUC 5 minutes (Table 10)): 24.9 percentage
PMN ROS production ([4]; 300 nM, AUC 5 minutes (Table 17)): 0.7 percentage
PMN ROS production ([4]; 500 nM, AUC 5 minutes (Table 10)): 23 percentage
PMN ROS production ([4]; 1000 nM, AUC 5 minutes (Table 10)): 32.2 percentage
PMN ROS production ([4]; 1000 nM, AUC 5 minutes (Table 17)): 0.5 percentage
